# Laboratory results taken from patent US20130195872A1 (NOVIMMUNE S A, published 2013).
# T1: cynomolgus IL-17F homodimer (cynomolgus, UniProt G7P4V0 31-163)
# T1 construct: range 31-163; Produced in house in PEAK cells, His-tagged, predominantly disulfide-linked homodimer; also called cyIL-17F; cnIL-17F; not shown: N-terminal His tag
# T1 sequence: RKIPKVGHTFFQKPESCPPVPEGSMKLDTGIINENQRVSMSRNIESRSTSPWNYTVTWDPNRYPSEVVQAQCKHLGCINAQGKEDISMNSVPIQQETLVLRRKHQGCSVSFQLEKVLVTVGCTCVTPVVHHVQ
# T2: human IL-17A homodimer (human, UniProt Q16552 20-155, limits assumed)
# T2 construct: Homodimer; also called huIL-17A
# T2 sequence (looked up): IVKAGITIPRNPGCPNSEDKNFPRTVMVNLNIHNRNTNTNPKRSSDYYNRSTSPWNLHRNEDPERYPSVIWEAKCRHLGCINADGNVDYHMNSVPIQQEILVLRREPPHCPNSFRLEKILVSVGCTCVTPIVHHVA
# T3: human IL-17A/IL-17F heterodimer (human, UniProt Q16552 24-155; Q96PD4 31-163, limits assumed)
# T3 sequence (looked up) 1: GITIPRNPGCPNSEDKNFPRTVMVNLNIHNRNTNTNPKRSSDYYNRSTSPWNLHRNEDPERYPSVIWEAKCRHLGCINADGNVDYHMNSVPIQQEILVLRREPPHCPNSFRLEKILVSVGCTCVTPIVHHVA
# T3 sequence (looked up) 2: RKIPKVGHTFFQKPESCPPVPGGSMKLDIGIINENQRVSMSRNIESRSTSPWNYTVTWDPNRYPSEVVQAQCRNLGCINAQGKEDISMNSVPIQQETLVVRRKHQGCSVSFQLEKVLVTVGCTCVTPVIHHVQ
# T4: cynomolgus IL-17A homodimer (cynomolgus, UniProt A0A2K5TTB0 20-155)
# T4 construct: Produced in house in PEAK cells, His-tagged, predominantly disulfide-linked homodimer; also called cyIL-17A; cnIL-17A; not shown: N-terminal His tag
# T4 sequence: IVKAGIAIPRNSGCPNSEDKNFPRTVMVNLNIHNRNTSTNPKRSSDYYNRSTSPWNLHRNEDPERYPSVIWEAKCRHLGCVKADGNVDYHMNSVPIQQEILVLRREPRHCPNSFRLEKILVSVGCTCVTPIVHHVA
# T5: rat IL-17F homodimer (rat, UniProt Q5BJ95 29-161)
# T5 sequence (looked up): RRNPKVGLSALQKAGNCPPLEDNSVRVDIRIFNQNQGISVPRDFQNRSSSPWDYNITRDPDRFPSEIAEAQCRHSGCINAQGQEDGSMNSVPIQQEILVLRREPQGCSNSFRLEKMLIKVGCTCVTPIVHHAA
# T6: rat IL-17A homodimer (rat, UniProt Q61453 18-150, limits assumed)
# T6 sequence (looked up): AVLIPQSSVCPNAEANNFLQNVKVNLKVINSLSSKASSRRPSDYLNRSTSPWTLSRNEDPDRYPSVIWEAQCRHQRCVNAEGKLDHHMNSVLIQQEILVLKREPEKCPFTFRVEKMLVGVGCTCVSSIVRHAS
# T7: mouse IL-17F homodimer (mouse, UniProt Q7TNI7 29-161, limits assumed)
# T7 sequence (looked up): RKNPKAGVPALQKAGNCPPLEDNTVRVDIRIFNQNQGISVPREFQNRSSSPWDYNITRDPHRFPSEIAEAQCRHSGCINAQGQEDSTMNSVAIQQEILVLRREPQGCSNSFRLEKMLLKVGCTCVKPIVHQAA
# T8: mouse IL-17A/IL-17F heterodimer (mouse, UniProt Q62386 26-158; Q7TNI7 29-161, limits assumed)
# T8 sequence (looked up) 1: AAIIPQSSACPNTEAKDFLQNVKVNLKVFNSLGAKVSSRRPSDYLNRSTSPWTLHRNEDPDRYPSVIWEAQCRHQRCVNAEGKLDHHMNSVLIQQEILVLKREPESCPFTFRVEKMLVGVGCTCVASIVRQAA
# T8 sequence (looked up) 2: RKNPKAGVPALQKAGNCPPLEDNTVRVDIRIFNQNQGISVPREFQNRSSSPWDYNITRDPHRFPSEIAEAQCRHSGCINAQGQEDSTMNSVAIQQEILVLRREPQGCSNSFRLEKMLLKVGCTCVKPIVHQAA
# T9: mouse IL-17A homodimer (mouse, UniProt Q62386 26-158, limits assumed)
# T9 sequence (looked up): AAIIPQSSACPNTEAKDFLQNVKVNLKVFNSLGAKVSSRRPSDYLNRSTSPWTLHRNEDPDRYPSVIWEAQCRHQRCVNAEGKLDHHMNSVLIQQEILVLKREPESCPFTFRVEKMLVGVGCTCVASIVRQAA
# Assays:
# [1] = molecular target: T1, cynomolgus IL-17F homodimer; experiment: FLISA, cytokine on beads
# human IL-17A homodimer [2] = molecular target: T2, human IL-17A homodimer; experiment: FLISA, cytokine on beads
# human IL-17A homodimer [3] = molecular target: T2, human IL-17A homodimer; experiment: cell-based or functional assay
# [4] = molecular target: T3, human IL-17A/IL-17F heterodimer; experiment: cell-based or functional assay
# human IL-17A homodimer [5] = molecular target: T2, human IL-17A homodimer; experiment: cell-based or functional assay; remark: listed apart in the source
# [6] = molecular target: T4, cynomolgus IL-17A homodimer; experiment: FLISA, cytokine on beads
# [7] = molecular target: T4, cynomolgus IL-17A homodimer; experiment: cell-based or functional assay
# [8] = molecular target: T1, cynomolgus IL-17F homodimer; experiment: cell-based or functional assay
# [9] = molecular target: T4, cynomolgus IL-17A homodimer; experiment: cell-based or functional assay; remark: listed apart in the source
# rat IL-17F homodimer = molecular target: T5, rat IL-17F homodimer; experiment: cell-based or functional assay
# [10] = molecular target: cynomolgus IL-17A/IL-17F heterodimer (cynomolgus); experiment: cell-based or functional assay
# rat IL-17A homodimer [11] = molecular target: T6, rat IL-17A homodimer; experiment: cell-based or functional assay
# mouse IL-17F homodimer [12] = molecular target: T7, mouse IL-17F homodimer; experiment: cell-based or functional assay
# [13] = molecular target: T8, mouse IL-17A/IL-17F heterodimer; experiment: cell-based or functional assay
# mouse IL-17A homodimer [14] = molecular target: T9, mouse IL-17A homodimer; experiment: cell-based or functional assay
# human IL-17A homodimer [15] = molecular target: T2, human IL-17A homodimer; experiment: SPR Biacore, mAb captured, cytokine as analyte
# [16] = molecular target: T4, cynomolgus IL-17A homodimer; experiment: SPR Biacore, mAb captured, cytokine as analyte
# [17] = molecular target: T10, cynomolgus IL-17A/IL-17F heterodimer (cynomolgus); experiment: SPR Biacore, mAb captured, cytokine as analyte
# T10 construct: Produced in house in PEAK cells; how the heterodimer was made is not described; also called cyIL-17A-F heterodimer; cynomolgus IL-17A/F
# mouse IL-17F homodimer [18] = molecular target: T7, mouse IL-17F homodimer; experiment: SPR Biacore, mAb captured, cytokine as analyte
# [19] = molecular target: T8, mouse IL-17A/IL-17F heterodimer; experiment: SPR Biacore, mAb captured, cytokine as analyte
# mouse IL-17A homodimer [20] = molecular target: T9, mouse IL-17A homodimer; experiment: SPR Biacore, mAb captured, cytokine as analyte
# rat IL-17A homodimer [21] = molecular target: T6, rat IL-17A homodimer; experiment: SPR Biacore, mAb captured, cytokine as analyte
Binder,binding result [1],"IC50, IL-6 secretion by MEF cells, cytokine at 5 ng/ml (human IL-17A homodimer [3]) [nM]","IC50, IL-6 secretion by MEF cells, cytokine at 17.5 ng/ml [4] [nM]","IC50, IL-6 secretion by HFFF2 human fibroblasts, cytokine at 25 ng/ml (human IL-17A homodimer [5]) [nM]",binding result [6],"IC50, IL-6 secretion by HFFF2 human fibroblasts, cytokine at 25 ng/ml [7] [nM]",further results
"41B10 antibody (antibody, IgG4, V domains shown, also called 41B10 IgG4) VH: not shown VL: DIQMTQSPSSLSASVGDRVTITCRASQGISSWLAWYQQKPEKAPKSLIYAASSLQSGVPSRFSGSGSGTDFTLTISSLQPEDFATYYCQQYNSYPITFGQGTRLEIK",binds,> 1000,> 1000,–,–,–,binding result (human IL-17A homodimer [2]): no binding
"4B11 antibody (antibody, IgG1, V domains shown, also called 4B11 IgG1) VH: QLQLQESGPGLVKPSETLSLTCAVSDDYISSRSYYWGWIRQPPGKGLEWIGSIYYSGSTYYNPSLKSRVTISVDTSKNQFSLKVSSVTATDTAVYYCARVSGWNGNWFDPWGQGTLVTVSS VL: not shown",binds,680,810,> 1000,binds,–,–
"30D12BF antibody (antibody, V domains shown) VH: QVQLVQSGAEVKKPGASVKVSCKASGYTFTSYDINWVRQATGQGLEWMGWLNPDSGVIRYAQKFQGRVTMTRDTSISTAYMELSSLRSEDTAVYYCAREWFGELPSYYFYSGMDVWGQGTTVTVSS VL: EIVLTQSPATLSLSPGERATLSCRASQSVSSYLAWYQQKPGQAPRLLIYDASNRATGIPARFSGSGSGTDFTLTISSLEPEDFAVYYCQQRSNWPPTFGPGTKVDIK",–,1.6,27,3,–,5.7,"IC50, IL-6 secretion by MEF cells, cytokine at 25 ng/ml [8]: 130 nM; IC50, IL-6 secretion by MEF cells, cytokine at 5 ng/ml [9]: 2.5 nM; IC50, IL-6 secretion by MEF cells, cytokine at 25 ng/ml (rat IL-17F homodimer): 30 nM; IC50, IL-6 secretion by MEF cells, cytokine at 25 ng/ml [10]: 13 nM; IC50, IL-6 secretion by MEF cells, cytokine at 5 ng/ml (rat IL-17A homodimer [11]): > 1000 nM"
"15E6FK antibody (antibody, V domains shown, kappa light chain (captured by anti-human IgG-kappa); also called mAb 15E6FK; 15E6FK IgG1) VH: EVQLVESGGGLVQPGRSLRLSCAASGFTFDDYAMHWVRQAPGKGLEWVSGINWSSGGIGYADSVKGRFTISRDNAKNSLYLQMNSLRAEDTALYYCARDIGGFGEFYWNFGLWGRGTLVTVSS VL: not shown",–,0.18,–,0.83,–,0.76,"Kd (human IL-17A homodimer [15]): 0.0117 nM; Kd [16]: 0.0104 nM; Kd [17]: 0.0394 nM; Kd (mouse IL-17F homodimer [18]): 0.236 nM; Kd [19]: 0.524 nM; binding result (mouse IL-17A homodimer [20]): no binding (tested: up to 90 nM cytokine); binding result (rat IL-17A homodimer [21]): no binding (tested: up to 90 nM cytokine); IC50, IL-6 secretion by MEF cells, cytokine at 5 ng/ml [9]: 0.04 nM; IC50, IL-6 secretion by MEF cells, cytokine at 25 ng/ml [10]: 0.08 nM; IC50, IL-6 secretion by MEF cells, cytokine at 50 ng/ml (mouse IL-17F homodimer [12]): > 1000 nM; IC50, IL-6 secretion by MEF cells, cytokine at 50 ng/ml [13]: > 1000 nM"
"4H11 antibody (antibody, IgG1, V domains shown, also called Mab09; 4H11 IgG1) VH: EVQLVESGGGLVQPGGSLKLSCAASGFTFSGSSMHWVRQASGKGLDWVGRIRSKANSYATAYAASVIGRFTISRDDSKNTAYLQMNSLKTEDTAVYYCTTSVATTLTDYYGMDVWGQGTTVTVSS VL: EIVLTQSPATLSLSPGERATLSCRASQSVSSYLAWYQQKPGQAPRLLIYDASNRATGIPARFSGSGSGTDFTLTISSLEPEDFAVYYCQQRSNWPPFTFGPGTKVDIK",binds,87,810,108,binds,–,–

# Further lines, with some results ahead:
binding result [1],"IC50, IL-6 secretion by MEF cells, cytokine at 5 ng/ml (human IL-17A homodimer [3]) [nM]","IC50, IL-6 secretion by MEF cells, cytokine at 17.5 ng/ml [4] [nM]","IC50, IL-6 secretion by HFFF2 human fibroblasts, cytokine at 25 ng/ml (human IL-17A homodimer [5]) [nM]",binding result [6],"IC50, IL-6 secretion by HFFF2 human fibroblasts, cytokine at 25 ng/ml [7] [nM]",Binder,further results
binds,> 1000,910,–,binds,–,"38B1 antibody (antibody, IgG1, V domains shown, also called 38B1 IgG1) VH: EVQLVESGGGLVQPGRSLRLSCAASGFTFDDFAMHWVRQAPGKGLEWVSGINWNSGSIGYADSVKGRFTISRDNAKNSLYLQMNSLRAEDTALYYCAKDIAAAGEFYFDMDVWGQGTTVTVSS VL: EIVLTQSPATLSLSPGERATLSCRASQSVSSYLAWYQQKPGQAPRLLIYDASNRATGIPARFSGSGSGTDFTLTISSLEPEDFAVYYCQQRSNWPPTFGQGTKLEIK",–
–,–,4.4,21,–,20,"39F12A antibody (antibody, V domains shown) VH: QVQLVQSGAEVKKPGSSVKVSCKASGGTLSSYAFSWVRQAPGQGLEWMGGIIPFFGTTNYAQKFQGRVIITADESTNTAYMELSGLRSEDTAVYYCARDRDYYGLGSPFYYYGMDVWGQGTTVTVSS VL: EIVLTQSPDFQSVTPKEKVTITCRASQSIGSSLHWYQQKPDQSPKLLIKYASQSFSGVPSRFSGSGSGTDFTLTINSLEAEDAATYYCHQSSSLPWTFGQGTKVEIK","IC50, IL-6 secretion by MEF cells, cytokine at 25 ng/ml (rat IL-17F homodimer): 0.71 nM; IC50, IL-6 secretion by MEF cells, cytokine at 50 ng/ml (mouse IL-17F homodimer [12]): 6.2 nM; IC50, IL-6 secretion by MEF cells, cytokine at 50 ng/ml [13]: 170 nM; IC50, IL-6 secretion by MEF cells, cytokine at 5 ng/ml (mouse IL-17A homodimer [14]): > 1000 nM; IC50, IL-6 secretion by MEF cells, cytokine at 5 ng/ml (rat IL-17A homodimer [11]): > 1000 nM"
binds,> 1000,> 1000,–,–,–,"5E12 antibody (antibody, IgG4, V domains shown, also called Mab05; 5E12 IgG4) VH: QVQLVQSGGGLVQPGRSLRLSCAASGFTFDDYAMHWVRQAPGKGLEWVSGISWNSGTIGYADSVKGRFTISRDNAKNSLYLQMNSLRAEDTALYYCAKELYISDWDSYSYGMDVWGQGTTVTVSS VL: not shown",binding result (human IL-17A homodimer [2]): no binding
